Measured values published in patent US9657062B2, “Ghrelin analogues” (Zealand Pharma A/S, priority 2012, dated 2017).
Bridges are numbered along the chain shown (N, C = ends). [ ]: non-standard residue; d: D form. The star is where a group is joined. Octanoyl = CCCCCCCC(=O)*; Dap = NC[C@H](N)C(=O)O; Octyl = CCCCCCCC*

target: human growth hormone secretagogue receptor type 1a (human, UniProt Q92847 1-366); experiment: cell-based or functional assay
Sequence (Q92847 whole entry): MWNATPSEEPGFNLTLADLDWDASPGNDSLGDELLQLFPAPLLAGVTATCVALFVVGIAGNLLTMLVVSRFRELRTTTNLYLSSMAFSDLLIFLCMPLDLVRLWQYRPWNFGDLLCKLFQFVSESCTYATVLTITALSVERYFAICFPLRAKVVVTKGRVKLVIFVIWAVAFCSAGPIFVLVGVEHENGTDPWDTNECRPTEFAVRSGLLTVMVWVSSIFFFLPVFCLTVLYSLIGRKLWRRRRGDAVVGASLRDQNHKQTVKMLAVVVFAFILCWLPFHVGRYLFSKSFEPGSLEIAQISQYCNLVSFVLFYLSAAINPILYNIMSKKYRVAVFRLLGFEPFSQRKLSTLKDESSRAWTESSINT

Row | Binder | EC50 (nM); Ca2+ induction in HEK293 cells stably expressing the human ghrelin receptor
1 | H-PS[Dap](Octanoyl)FL-NH2 (SMILES CCCCCCCC(=O)NC[C@H](NC(=O)[C@H](CO)NC(=O)[C@@H]1CCCN1)C(=O)N[C@@H](Cc1ccccc1)C(=O)N[C@@H](CC(C)C)C(N)=O) [H-PS-Dap(N-octanoyl)-FL-NH2] | 1.69 nM
2 | H-PS[NH‑CH(n-C10H21)‑C(O)]FLSPEHQRVQQRKES-NH2 [H-PS-[NH-CH(n-C10H21)-C(O)]-FLSPEHQRVQQRKES-NH2] | 0.164 nM
3 | H-PS[Dap](Octanoyl)FLSP-NH2 (SMILES CCCCCCCC(=O)NC[C@H](NC(=O)[C@H](CO)NC(=O)[C@@H]1CCCN1)C(=O)N[C@@H](Cc1ccccc1)C(=O)N[C@@H](CC(C)C)C(=O)N[C@@H](CO)C(=O)N1CCC[C@H]1C(N)=O) [H-PS-Dap(N-octanoyl)-FLSP-NH2] | 0.26 nM
4 | H-PS[Dap](Octanoyl)FLSPEHQRVQQRKESKKPPA-NH2 (SMILES CCCCCCCC(=O)NC[C@H](NC(=O)[C@H](CO)NC(=O)[C@@H]1CCCN1)C(=O)N[C@@H](Cc1ccccc1)C(=O)N[C@@H](CC(C)C)C(=O)N[C@@H](CO)C(=O)N1CCC[C@H]1C(=O)N[C@@H](CCC(=O)O)C(=O)N[C@@H](Cc1c[nH]cn1)C(=O)N[C@@H](CCC(N)=O)C(=O)N[C@@H](CCCNC(=N)N)C(=O)N[C@H](C(=O)N[C@@H](CCC(N)=O)C(=O)N[C@@H](CCC(N)=O)C(=O)N[C@@H](CCCNC(=N)N)C(=O)N[C@@H](CCCCN)C(=O)N[C@@H](CCC(=O)O)C(=O)N[C@@H](CO)C(=O)N[C@@H](CCCCN)C(=O)N[C@@H](CCCCN)C(=O)N1CCC[C@H]1C(=O)N1CCC[C@H]1C(=O)N[C@@H](C)C(N)=O)C(C)C) [H-PS-Dap(N-octanoyl)-FLSPEHQRVQQRKESKKPPA-NH2] | 0.136 nM
5 | H-GSS(Octanoyl)FLSPEHERVQKRKESKKPPAKLQPR-OH (lactam 10-14; SMILES CCCCCCCC(=O)OC[C@H](NC(=O)[C@H](CO)NC(=O)CN)C(=O)N[C@@H](Cc1ccccc1)C(=O)N[C@@H](CC(C)C)C(=O)N[C@@H](CO)C(=O)N1CCC[C@H]1C(=O)N[C@@H](CCC(=O)O)C(=O)N[C@@H](Cc1c[nH]cn1)C(=O)N[C@H]1CCC(=O)NCCCC[C@@H](C(=O)N[C@@H](CCCNC(=N)N)C(=O)N[C@@H](CCCCN)C(=O)N[C@@H](CCC(=O)O)C(=O)N[C@@H](CO)C(=O)N[C@@H](CCCCN)C(=O)N[C@@H](CCCCN)C(=O)N2CCC[C@H]2C(=O)N2CCC[C@H]2C(=O)N[C@@H](C)C(=O)N[C@@H](CCCCN)C(=O)N[C@@H](CC(C)C)C(=O)N[C@@H](CCC(N)=O)C(=O)N2CCC[C@H]2C(=O)N[C@@H](CCCNC(=N)N)C(=O)O)NC(=O)[C@H](CCC(N)=O)NC(=O)[C@H](C(C)C)NC(=O)[C@H](CCCNC(=N)N)NC1=O) [H-GS-S(octanoyl)-FLSPEHE()RVQK()RKESKKPPAKLQPR-OH] | 0.597 nM
6 | PSSFLSPEHQRVQQRKESKKPPAKLQPR (Dap(N-octanoyl) at position 3; C-terminal amide (-NH2)) [H-PS-Dap(N-octanoyl)-FLSPEHQRVQQRKESKKPPAKLQPR-NH2] | 0.193 nM
7 | H-PS[Dap](Octanoyl)FLSPEHQRVQRKESKKPPAKLQPR-NH2 [H-PS-Dap(N-octanoyl)-FLSPEHQRVQRKESKKPPAKLQPR-NH2] | 0.253 nM
8 | H-PSS(Octyl)FLSPEHQRKQQRKESKKPPAKLQPR-NH2 (lactam 8-12; SMILES CCCCCCCCOC[C@H](NC(=O)[C@H](CO)NC(=O)[C@@H]1CCCN1)C(=O)N[C@@H](Cc1ccccc1)C(=O)N[C@@H](CC(C)C)C(=O)N[C@@H](CO)C(=O)N1CCC[C@H]1C(=O)N[C@H]1CCC(=O)NCCCC[C@@H](C(=O)N[C@@H](CCC(N)=O)C(=O)N[C@@H](CCC(N)=O)C(=O)N[C@@H](CCCNC(=N)N)C(=O)N[C@@H](CCCCN)C(=O)N[C@@H](CCC(=O)O)C(=O)N[C@@H](CO)C(=O)N[C@@H](CCCCN)C(=O)N[C@@H](CCCCN)C(=O)N2CCC[C@H]2C(=O)N2CCC[C@H]2C(=O)N[C@@H](C)C(=O)N[C@@H](CCCCN)C(=O)N[C@@H](CC(C)C)C(=O)N[C@@H](CCC(N)=O)C(=O)N2CCC[C@H]2C(=O)N[C@@H](CCCNC(=N)N)C(N)=O)NC(=O)[C@H](CCCNC(=N)N)NC(=O)[C@H](CCC(N)=O)NC(=O)[C@H](Cc2c[nH]cn2)NC1=O) [H-PS-S(O-octyl)-FLSPE()HQRK()QQRKESKKPPAKLQPR-NH2] | 0.365 nM
9 | H-PS[NH‑CH(n-C10H21)‑C(O)]FLSPEHQRVQQRKESKKPPA-NH2 [H-PS-[NH-CH(n-C10H21)-C(O)]-FLSPEHQRVQQRKESKKPPA-NH2] | 0.255 nM
10 | H-PS[Dap](Octanoyl)FLS-NH2 (SMILES CCCCCCCC(=O)NC[C@H](NC(=O)[C@H](CO)NC(=O)[C@@H]1CCCN1)C(=O)N[C@@H](Cc1ccccc1)C(=O)N[C@@H](CC(C)C)C(=O)N[C@@H](CO)C(N)=O) [H-PS-Dap(N-octanoyl)-FLS-NH2] | 1.2 nM
11 | H-GSS(Octanoyl)FLSPEHQRKQQRKESKKPPAKLQPR-OH (lactam 8-12; SMILES CCCCCCCC(=O)OC[C@H](NC(=O)[C@H](CO)NC(=O)CN)C(=O)N[C@@H](Cc1ccccc1)C(=O)N[C@@H](CC(C)C)C(=O)N[C@@H](CO)C(=O)N1CCC[C@H]1C(=O)N[C@H]1CCC(=O)NCCCC[C@@H](C(=O)N[C@@H](CCC(N)=O)C(=O)N[C@@H](CCC(N)=O)C(=O)N[C@@H](CCCNC(=N)N)C(=O)N[C@@H](CCCCN)C(=O)N[C@@H](CCC(=O)O)C(=O)N[C@@H](CO)C(=O)N[C@@H](CCCCN)C(=O)N[C@@H](CCCCN)C(=O)N2CCC[C@H]2C(=O)N2CCC[C@H]2C(=O)N[C@@H](C)C(=O)N[C@@H](CCCCN)C(=O)N[C@@H](CC(C)C)C(=O)N[C@@H](CCC(N)=O)C(=O)N2CCC[C@H]2C(=O)N[C@@H](CCCNC(=N)N)C(=O)O)NC(=O)[C@H](CCCNC(=N)N)NC(=O)[C@H](CCC(N)=O)NC(=O)[C@H](Cc2c[nH]cn2)NC1=O) [H-GS-S(octanoyl)-FLSPE()HQRK()QQRKESKKPPAKLQPR-OH] | 0.534 nM

The next lines start with the values.

Row | EC50 (nM); Ca2+ induction in HEK293 cells stably expressing the human ghrelin receptor | Binder
12 | 1.29 nM | H-GSS(Octanoyl)FLSPEHQRVQQRKESKEPPAKLQPR-OH (lactam 16-20; SMILES CCCCCCCC(=O)OC[C@H](NC(=O)[C@H](CO)NC(=O)CN)C(=O)N[C@@H](Cc1ccccc1)C(=O)N[C@@H](CC(C)C)C(=O)N[C@@H](CO)C(=O)N1CCC[C@H]1C(=O)N[C@@H](CCC(=O)O)C(=O)N[C@@H](Cc1c[nH]cn1)C(=O)N[C@@H](CCC(N)=O)C(=O)N[C@@H](CCCNC(=N)N)C(=O)N[C@H](C(=O)N[C@@H](CCC(N)=O)C(=O)N[C@@H](CCC(N)=O)C(=O)N[C@@H](CCCNC(=N)N)C(=O)N[C@H]1CCCCNC(=O)CC[C@@H](C(=O)N2CCC[C@H]2C(=O)N2CCC[C@H]2C(=O)N[C@@H](C)C(=O)N[C@@H](CCCCN)C(=O)N[C@@H](CC(C)C)C(=O)N[C@@H](CCC(N)=O)C(=O)N2CCC[C@H]2C(=O)N[C@@H](CCCNC(=N)N)C(=O)O)NC(=O)[C@H](CCCCN)NC(=O)[C@H](CO)NC(=O)[C@H](CCC(=O)O)NC1=O)C(C)C) [H-GS-S(octanoyl)-FLSPEHQRVQQRK()ESKE()PPAKLQPR-OH]
13 | 0.224 nM | H-PS[Dap](Octanoyl)FLSPEHSRVSSRKESKKPPAKLSPR-NH2 (SMILES CCCCCCCC(=O)NC[C@H](NC(=O)[C@H](CO)NC(=O)[C@@H]1CCCN1)C(=O)N[C@@H](Cc1ccccc1)C(=O)N[C@@H](CC(C)C)C(=O)N[C@@H](CO)C(=O)N1CCC[C@H]1C(=O)N[C@@H](CCC(=O)O)C(=O)N[C@@H](Cc1c[nH]cn1)C(=O)N[C@@H](CO)C(=O)N[C@@H](CCCNC(=N)N)C(=O)N[C@H](C(=O)N[C@@H](CO)C(=O)N[C@@H](CO)C(=O)N[C@@H](CCCNC(=N)N)C(=O)N[C@@H](CCCCN)C(=O)N[C@@H](CCC(=O)O)C(=O)N[C@@H](CO)C(=O)N[C@@H](CCCCN)C(=O)N[C@@H](CCCCN)C(=O)N1CCC[C@H]1C(=O)N1CCC[C@H]1C(=O)N[C@@H](C)C(=O)N[C@@H](CCCCN)C(=O)N[C@@H](CC(C)C)C(=O)N[C@@H](CO)C(=O)N1CCC[C@H]1C(=O)N[C@@H](CCCNC(=N)N)C(N)=O)C(C)C) [H-PS-Dap(N-octanoyl)-FLSPEHSRVSSRKESKKPPAKLSPR-NH2]
14 | 0.155 nM | H-PSS(Octyl)FLSPEHERVQKRKESKKPPAKLQPR-NH2 (lactam 10-14; SMILES CCCCCCCCOC[C@H](NC(=O)[C@H](CO)NC(=O)[C@@H]1CCCN1)C(=O)N[C@@H](Cc1ccccc1)C(=O)N[C@@H](CC(C)C)C(=O)N[C@@H](CO)C(=O)N1CCC[C@H]1C(=O)N[C@@H](CCC(=O)O)C(=O)N[C@@H](Cc1c[nH]cn1)C(=O)N[C@H]1CCC(=O)NCCCC[C@@H](C(=O)N[C@@H](CCCNC(=N)N)C(=O)N[C@@H](CCCCN)C(=O)N[C@@H](CCC(=O)O)C(=O)N[C@@H](CO)C(=O)N[C@@H](CCCCN)C(=O)N[C@@H](CCCCN)C(=O)N2CCC[C@H]2C(=O)N2CCC[C@H]2C(=O)N[C@@H](C)C(=O)N[C@@H](CCCCN)C(=O)N[C@@H](CC(C)C)C(=O)N[C@@H](CCC(N)=O)C(=O)N2CCC[C@H]2C(=O)N[C@@H](CCCNC(=N)N)C(N)=O)NC(=O)[C@H](CCC(N)=O)NC(=O)[C@H](C(C)C)NC(=O)[C@H](CCCNC(=N)N)NC1=O) [H-PS-S(O-octyl)-FLSPEHE()RVQK()RKESKKPPAKLQPR-NH2]
15 | 1.4 nM | RSFLSPEHQRVQQRKESKKPPAKLQPR (N-terminal Ac-Orn (acetylated ornithine, stands for X1 and X2 together); next residue Ser(O-octyl) (position 3 of the formula); C-terminal amide (-NH2)) [Ac-Orn-S(O-octyl)-FLSPEHQRVQQRKESKKPPAKLQPR-NH2]
16 | 0.527 nM | RSFLSPEHQRVQQRKESKKPPAKLQPR (N-terminal Orn (ornithine, stands for X1 and X2 together); next residue Ser(O-octyl) (position 3 of the formula); C-terminal amide (-NH2)) [H-Orn-S(O-octyl)-FLSPEHQRVQQRKESKKPPAKLQPR-NH2]
